# Data as given in paper PMC3155659.
# Biological target: amyloid precursor protein (APP), endogenous mouse (mouse (endogenous in mouse brain and primary neurons))
# Assay: co-IP
binder,measurement,value
"Disabled1 (Dab1), endogenous mouse (natural protein) MSTETELQVAVKTSAKKDSRKKGQDRSEATLIKRFKGEGVRYKAKLIGIDEVSAARGDKLCQDSMMKLKGVVAGARSKGEHKQKIFLTISFGGIKIFDEKTGALQHHHAVHEISYIAKDITDHRAFGYVCGKEGNHRFVAIKTAQAAEPVILDLRDLFQLIYELKQREELEKKAQKDKQCEQAVYQTILEEDVEDPVYQYIVFEAGHEPIRDPETEENIYQVPTSQKKEGVYDVPKSQPNSQPLEDFESRFAAATPNRNLSMDFDELLEATKVSAVTQLELFGDMSTPPDITSPPTPATPGDAFLPSSSQTLPGSADVFGSMSFGTAAVPSGYVAMGAVLPSFWGQQPLVQQQIAMGAQPPVAQVIPGAQPIAWGQPGLFPATQQAWPTVAGQFPPAAFMPTQTVMPLAAAMFQGPLTPLATVPGTNDSARSSPQSDKPRQKMGKESFKDFQMVQPPPVPSRKPDQPSLTCTSEAFSSYFNKVGVAQDTDDCDDFDISQLNLTPVTSTTPSTNSPPTPAPRQSSPSKSSASHVSDPTADDIFEEGFESPSKSEEQEAPDGSQASSTSDPFGEPSGEPSGDNISPQDGS","decrease in APP-Dab1 co-precipitation against control, 20 min of Reelin",89 % decrease
same,"decrease in APP-Dab1 co-precipitation against control, 1 hr of Reelin",87 % decrease
same,"decrease in APP-Dab1 co-precipitation against control, 4 hrs of Reelin",67 % decrease
